Target: TNF-alpha (mouse) (Mus musculus, UniProt P06804 80-235)
Test: nitrocellulose filter binding with qPCR

TNF-alpha (mouse), sequence (P06804 80-235): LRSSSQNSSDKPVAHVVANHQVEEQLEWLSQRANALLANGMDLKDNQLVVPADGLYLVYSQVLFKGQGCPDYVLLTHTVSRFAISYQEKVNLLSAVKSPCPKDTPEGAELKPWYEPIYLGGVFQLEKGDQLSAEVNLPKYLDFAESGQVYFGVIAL

GCGCCACTACAGGGGAGCTGCCATTCGAATAGGTGGGCCGC (ssDNA) [aptTNF-alpha]: binds.

— publication PMC6485186
